Reference: article PMC7721913 (The Journal of Cell Biology, 2020)

B1: KLC1: kinesin light chain 1 (protein)
chain: MHDNMSTMVYMKEEKLEKLTQDEIISKTKQVIQGLEALKNEHNSILQSLLETLKCLKKDDESNLVEEKSSMIRKSLEMLELGLSEAQVMMALSNHLNAVESEKQKLRAQVRRLCQENQWLRDELANTQQKLQKSEQSVAQLEEEKKHLEFMNQLKKYDDDISPSEDKDSDSSKEPLDDLFPNDEDDPGQGIQQQHSSAAAAAQQGGYEIPARLRTLHNLVIQYASQGRYEVAVPLCKQALEDLEKTSGHDHPDVATMLNILALVYRDQNKYKDAANLLNDALAIREKTLGRDHPAVAATLNNLAVLYGKRGKYKEAEPLCKRALEIREKVLGKDHPDVAKQLNNLALLCQNQGKYEEVEYYYQRALEIYQTKLGPDDPNVAKTKNNLASCYLKQGKFKQAETLYKEILTRAHEREFGSVDDENKPIWMHAEEREECKGKQKDGSSFGEYGGWYKACKVDSPTVTTTLKNLGALYRRQGKFEAAETLEEAALRSRKQGLDNVHKQRVAEVLNDPENVEKRRSRESLNVDVVKYESGPDGGEEVSMSVEWNGMRKMKLGLVK
B2: WT KIF5A: kinesin heavy chain KIF5A (protein, UniProt Q6QLM7 2-1027, looked up)
Kinesin heavy chain isoform 5A: AETNNECSIKVLCRFRPLNQAEILRGDKFIPIFQGDDSVIIGGKPYVFDRVFPPNTTQEQVYHACAMQIVKDVLAGYNGTIFAYGQTSSGKTHTMEGKLHDPQLMGIIPRIARDIFNHIYSMDENLEFHIKVSYFEIYLDKIRDLLDVTKTNLSVHEDKNRVPFVRGCTERFVSSPEEILDVIDEGKSNRHVAVTNMNEHSSRSHSIFLINIKQENIETEQKLSGKLYLADLAGSEKVSKTGAEGAVLDEAKNINKSLSALGNVISALAEGTKSYVPYRDSKMTRILQDSLGGNCRTTMFICCSPSSYNDAETKSTLMFGQRAKTIKNTASVNLELTAEQWKKKYEKEKEKTKAQKETIAKLEAELSRWRNGENVPETERLAGEDSALAAEICEETPVNDNSSIVVRIAPEERQKYEEEIRRLYKQLDDKDDEINQQSQLIEKLKQQMLDQEELLVSTRGDNEKVQRELSHLQSENDAAKEEVKEVLQALEELAVNYDQKSQEVEEKSQQNQLLVDELSQKVATMLSLESEPQRLQEVSGHQRKRIAEVLNGLMKDLSEFSVIVGNGEIKLPVEISGAIEEEFTVARLYISKIKSEVKSVVKRCRQLENLQVECHRKMEVTGRELSSCQLLISQHEAKIRSLTEYMQTVELKKRHLEESYDSLSDELAKLQAQETVHEVALKDKEPDTQDAEEVKKALELQMENHREAHHRQLARLRDEINEKQKTIDELKDLDQKLQLELEKLQADYERLKNEENEKSAKLQELTFLYERHEQSKQDLKGLEETVARELQTLHNLRKLFVQDVTTRVKKSAEMEPEDSGGIHSQKQKISFLENNLEQLTEVHKQLVRDNADLRCELPKLEKRLRATAERVKALEGALKEAKEGAMKDKRRYQQEVDRIKEAVRYKSSGKRGHSAQIAKPVRPGHYPASSPTNPYGTRSPECISYTNNLFQNYQNLHLQAAPSSTSDVYFASNGATSVAPLASYQKANTDNGNATDINDNRSDLPCGYEAEDPAKLFPLHQETAAS
B3: KIF3C: kinesin transporting RNA granules in neurons (protein, UniProt O55165 1-796, looked up)
Kinesin-like protein KIF3C: MASKTKASEALKVVARCRPLSRKEEAAGHEQILTMDVKLGQVTLRNPRAAPGELPKTFTFDAVYDASSKQADLYDETVRPLIDSVLQGFNGTVFAYGQTGTGKTYTMQGTWVEPELRGVIPNAFEHIFTHISRSQNQQYLVRASYLEIYQEEIRDLLSKEPGKRLELKENPETGVYIKDLSSFVTKNVKEIEHVMNLGNQARAVGSTHMNEVSSRSHAIFVITVECSERGSDGQDHIRVGKLNLVDLAGSERQNKAGPNTPGGPATQSTAGGGGGGGGTSGSGSSGERPKEASKINLSLSALGNVIAALAGNRSTHIPYRDSKLTRLLQDSLGGNAKTIMVATLGPASHSYDESLSTLRFANRAKNIKNKPRVNEDPKDTLLREFQEEIARLKAQLEKKGMLGKRPRRKSSRRKKAVSAPAGYPEGAVIEAWVAEEEDDNNNNHRPPQPTLEAALEKNMENYLQEQKERLEEEKAAIQDDRSLVSEEKQKLLEEKEKMLEDLKREQQATELLAAKYKAMESKLLIGGRNIMDHTNEQQKMLELKRQEIAEQKRREREMQQEMLLRDEETMELRGTYSSLQQEVEVKTKKLKKLYAKLQAVKAEIQDQHEEYIRVRQDLEEAQNEQTRELKLKYLIIENFIPPEEKNKIMNRLFLDCEEEQWKFQPLVPAGVNNSQMKKRPTSAVGYKRPISQYARVAMAMGSHPRYRAENIMFLELDVSPPAIFEMEFSHDQEQDPRVLHMERLMRLDSFLERPSTSKVRKSRSWCQSPQRPPPPSTVHASMASAPLHPATVVDHD
B4: KLC2: kinesin light chain 2 (protein, UniProt Q9H0B6 1-622, looked up)
Kinesin light chain 2: MAMMVFPREEKLSQDEIVLGTKAVIQGLETLRGEHRALLAPLVAPEAGEAEPGSQERCILLRRSLEAIELGLGEAQVILALSSHLGAVESEKQKLRAQVRRLVQENQWLREELAGTQQKLQRSEQAVAQLEEEKQHLLFMSQIRKLDEDASPNEEKGDVPKDTLDDLFPNEDEQSPAPSPGGGDVSGQHGGYEIPARLRTLHNLVIQYASQGRYEVAVPLCKQALEDLEKTSGHDHPDVATMLNILALVYRDQNKYKEAAHLLNDALAIREKTLGKDHPAVAATLNNLAVLYGKRGKYKEAEPLCKRALEIREKVLGKFHPDVAKQLSNLALLCQNQGKAEEVEYYYRRALEIYATRLGPDDPNVAKTKNNLASCYLKQGKYQDAETLYKEILTRAHEKEFGSVNGDNKPIWMHAEEREESKDKRRDSAPYGEYGSWYKACKVDSPTVNTTLRSLGALYRRQGKLEAAHTLEDCASRNRKQGLDPASQTKVVELLKDGSGRRGDRRSSRDMAGGAGPRSESDLEDVGPTAEWNGDGSGSLRRSGSFGKLRDALRRSSEMLVKKLQGGTPQEPPNPRMKRASSLNFLNKSVEEPTQPGGTGLSDSRTLSSSSMDLSRRSSLVG
B5: KIF5C: kinesin heavy chain KIF5C (protein, UniProt O60282 1-957, looked up)
Kinesin heavy chain isoform 5C: MADPAECSIKVMCRFRPLNEAEILRGDKFIPKFKGDETVVIGQGKPYVFDRVLPPNTTQEQVYNACAKQIVKDVLEGYNGTIFAYGQTSSGKTHTMEGKLHDPQLMGIIPRIAHDIFDHIYSMDENLEFHIKVSYFEIYLDKIRDLLDVSKTNLAVHEDKNRVPYVKGCTERFVSSPEEVMDVIDEGKANRHVAVTNMNEHSSRSHSIFLINIKQENVETEKKLSGKLYLVDLAGSEKVSKTGAEGAVLDEAKNINKSLSALGNVISALAEGTKTHVPYRDSKMTRILQDSLGGNCRTTIVICCSPSVFNEAETKSTLMFGQRAKTIKNTVSVNLELTAEEWKKKYEKEKEKNKTLKNVIQHLEMELNRWRNGEAVPEDEQISAKDQKNLEPCDNTPIIDNIAPVVAGISTEEKEKYDEEISSLYRQLDDKDDEINQQSQLAEKLKQQMLDQDELLASTRRDYEKIQEELTRLQIENEAAKDEVKEVLQALEELAVNYDQKSQEVEDKTRANEQLTDELAQKTTTLTTTQRELSQLQELSNHQKKRATEILNLLLKDLGEIGGIIGTNDVKTLADVNGVIEEEFTMARLYISKMKSEVKSLVNRSKQLESAQMDSNRKMNASERELAACQLLISQHEAKIKSLTDYMQNMEQKRRQLEESQDSLSEELAKLRAQEKMHEVSFQDKEKEHLTRLQDAEEMKKALEQQMESHREAHQKQLSRLRDEIEEKQKIIDEIRDLNQKLQLEQEKLSSDYNKLKIEDQEREMKLEKLLLLNDKREQAREDLKGLEETVSRELQTLHNLRKLFVQDLTTRVKKSVELDNDDGGGSAAQKQKISFLENNLEQLTKVHKQLVRDNADLRCELPKLEKRLRATAERVKALESALKEAKENAMRDRKRYQQEVDRIKEAVRAKNMARRAHSAQIAKPIRPGHYPASSPTAVHAIRGGGGSSSNSTHYQK

Tested on: SFPQ
Test: PRM-based quantification of KIF5 and KLC in SFPQ immunoprecipitations
Format: binding, rat
Conditions: KIF5A vs KIF5B or KIF5C, KLC1 vs KLC2; three independent experiments

Row | Molecule | relative abundance in SFPQ immunoprecipitate (in words)
1 | B1 | approximately twice as abundant
2 | B2 | approximately twice as abundant

Tested on: SFPQ
Test: Coimmunoprecipitation of endogenous SFPQ from DRG lysate, Western blot
Format: binding, rat
Conditions: DRG sensory neuron lysate

Row | Molecule | coimmunoprecipitation with SFPQ (in words)
3 | B3 | none of these kinesins significantly coimmunoprecipitates with SFPQ
4 | B1 | preferentially coimmunoprecipitates
5 | B2 | preferentially coimmunoprecipitates

Tested on: CB and distal axon compartments of DRG neurons
Test: Western blot of KIF5 and KLC in cell body and distal axon lysates
Format: cell-based, rat
Conditions: Campenot CB vs distal axon lysates

Row | Molecule | compartment localization (in words)
6 | B4 | localize to both CB and distal axon compartments
7 | B5 | localize to both CB and distal axon compartments
8 | B1 | localize to both CB and distal axon compartments
9 | B2 | localize to both CB and distal axon compartments
